From patent publication US20250115677A1, “Anti-CEA Antibody Drug Conjugates and Methods of Use” (BeiGene Switzerland GmbH, priority 2022, published 2025)

Legend:
[1] = molecular target: T1, CEACAM3 on transiently transfected HEK293 cells (Homo sapiens (Human), UniProt P40198 35-252); experiment: flow cytometry on transiently transfected HEK293 cells
T1 sequence: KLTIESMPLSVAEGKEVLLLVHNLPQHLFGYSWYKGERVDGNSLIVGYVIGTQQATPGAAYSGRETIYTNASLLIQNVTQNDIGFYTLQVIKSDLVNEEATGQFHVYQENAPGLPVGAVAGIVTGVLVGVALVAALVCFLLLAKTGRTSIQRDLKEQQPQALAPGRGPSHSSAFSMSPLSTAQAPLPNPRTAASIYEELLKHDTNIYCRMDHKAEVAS
Method: (§1) Cell fluorescence was quantified using a flow cytometer (Guava easyCyte™ 8HT, Merck-Millipore, USA). For antigen ELISA, CEACAM1(SEQ ID NO:64) (Cat. No. 10822-H08H, Sino Biological, China), CHIM (SEQ ID NO:63), CEA (SEQ ID NO:55) or CEACAM6 (SEQ ID NO:57) were coated in 96-well plates at a concentration of 10 μg/ml overnight at 4° C.

[2] = molecular target: T2, CEACAM7 on transiently transfected HEK293 cells (Homo sapiens (Human), UniProt Q14002 36-242); experiment: as above
T2 sequence: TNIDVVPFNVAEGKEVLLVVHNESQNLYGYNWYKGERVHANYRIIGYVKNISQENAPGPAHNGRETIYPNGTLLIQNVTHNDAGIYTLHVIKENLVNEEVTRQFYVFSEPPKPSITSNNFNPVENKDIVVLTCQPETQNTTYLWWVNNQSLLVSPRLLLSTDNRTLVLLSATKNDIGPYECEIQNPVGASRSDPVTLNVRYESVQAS
Method: as §1

[3] = molecular target: T3, CEACAM8 on transiently transfected HEK293 cells (Homo sapiens (Human), UniProt P31997 35-320); experiment: as above
T3 sequence: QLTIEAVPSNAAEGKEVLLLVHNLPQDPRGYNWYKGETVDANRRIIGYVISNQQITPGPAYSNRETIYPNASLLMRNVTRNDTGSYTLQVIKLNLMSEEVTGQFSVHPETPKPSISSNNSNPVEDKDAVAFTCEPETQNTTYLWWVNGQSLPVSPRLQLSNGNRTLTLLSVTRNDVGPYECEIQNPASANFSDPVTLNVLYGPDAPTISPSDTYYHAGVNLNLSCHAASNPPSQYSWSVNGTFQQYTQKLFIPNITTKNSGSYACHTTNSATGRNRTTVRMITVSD
Method: as §1

[4] = molecular target: T4, human CEA on cells (MKN45, LOVO, NCI-H2122, LS174T, CT26/CEA) (human, UniProt P06731 35-685); experiment: flow cytometry on MKN45 cells, no soluble CEA, anti-huFc-APC
T4 construct: Full-length human CEA, endogenous on tumour cell lines or transduced; also called native CEA on living cells; huCEA surface protein
T4 sequence: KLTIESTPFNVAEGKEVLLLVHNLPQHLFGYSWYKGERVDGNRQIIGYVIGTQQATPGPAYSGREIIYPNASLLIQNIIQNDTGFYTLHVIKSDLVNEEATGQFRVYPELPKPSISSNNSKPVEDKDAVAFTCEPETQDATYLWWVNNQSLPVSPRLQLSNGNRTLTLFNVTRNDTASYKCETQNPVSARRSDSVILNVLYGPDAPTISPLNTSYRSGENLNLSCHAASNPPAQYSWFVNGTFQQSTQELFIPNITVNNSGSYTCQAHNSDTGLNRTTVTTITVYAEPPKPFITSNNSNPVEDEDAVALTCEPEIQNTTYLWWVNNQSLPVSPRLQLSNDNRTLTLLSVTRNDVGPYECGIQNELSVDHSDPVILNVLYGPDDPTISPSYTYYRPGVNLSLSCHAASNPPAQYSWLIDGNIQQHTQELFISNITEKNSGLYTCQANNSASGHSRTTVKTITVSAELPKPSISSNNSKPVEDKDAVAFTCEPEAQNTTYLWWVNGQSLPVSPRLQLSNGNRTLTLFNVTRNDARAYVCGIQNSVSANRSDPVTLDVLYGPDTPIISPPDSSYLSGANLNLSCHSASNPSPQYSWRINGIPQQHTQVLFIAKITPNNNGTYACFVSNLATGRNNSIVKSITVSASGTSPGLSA
Method: The mixtures were then incubated with 2×10^5 CEA-expressing cells, such as MKN45 cells, for 30 minutes at 4° C. The cells were stained with secondary antibody anti-huFc-APC (Cat. No. 409320, BioLegend, USA) and analyzed by flow cytometry.

[5] = molecular target: T5, CEACAM1 (Cat. No. 10822-H08H, Sino Biological) (Homo sapiens (Human), UniProt P13688 35-428); experiment: antigen ELISA, antigen coated at 10 ug/ml, HRP anti-human Fc
T5 construct: Bought protein
T5 sequence: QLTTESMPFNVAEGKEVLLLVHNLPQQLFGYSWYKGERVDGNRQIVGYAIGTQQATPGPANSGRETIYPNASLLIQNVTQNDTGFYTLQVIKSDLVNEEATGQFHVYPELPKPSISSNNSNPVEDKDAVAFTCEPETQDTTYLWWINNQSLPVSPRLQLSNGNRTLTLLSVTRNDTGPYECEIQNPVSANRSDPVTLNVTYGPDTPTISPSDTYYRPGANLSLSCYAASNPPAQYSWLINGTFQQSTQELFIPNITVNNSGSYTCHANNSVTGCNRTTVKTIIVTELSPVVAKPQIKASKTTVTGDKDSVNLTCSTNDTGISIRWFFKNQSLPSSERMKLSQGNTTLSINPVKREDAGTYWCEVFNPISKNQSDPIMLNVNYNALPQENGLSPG
Method: as §1

[6] = molecular target: T6, recombinant human CEACAM6 (AA 1-320, C-terminal 6xHis) (human, UniProt P40199 35-320); experiment: as above
T6 sequence: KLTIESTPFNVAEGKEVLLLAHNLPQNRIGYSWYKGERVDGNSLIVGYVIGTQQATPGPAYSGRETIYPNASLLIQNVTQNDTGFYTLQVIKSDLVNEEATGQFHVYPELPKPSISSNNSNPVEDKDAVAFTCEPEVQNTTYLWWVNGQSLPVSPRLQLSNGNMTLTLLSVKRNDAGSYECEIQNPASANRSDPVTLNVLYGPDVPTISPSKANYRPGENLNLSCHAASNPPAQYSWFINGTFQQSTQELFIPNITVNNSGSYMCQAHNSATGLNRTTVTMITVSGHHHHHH
Method: as §1

B1: BGA5384 (antibody, human IgG1, kappa, V domains shown)
VH: QVQLVQSGAEVKKPGASVKVSCKASGYIFTSYYLHWVRQAPGQGLEWIGYINPQTGKTSYAQKFQGRVTMTRDTSTSTVYMELSSLRSEDTAVYYCAREYGNYNYPLDYWGQGTLVTVSS
VL: DIQMTQSPSSLSASVGDRVTITCRASENQYGYLAWYQQKPGKVPKLLIYNYKNLVEGVPSRFSGSGSGTDFTLTISSLQPEDVATYYCQHHLGTPYTFGQGTKVEIKR
notes: BGA6710 with Y57K in VH; human IgG1 format; also called BGA7592-1K
[1]
  binding result: no binding (tested: 2 µg/ml)
[2]
  binding result: no binding (tested: 2 µg/ml)
[3]
  binding result: no binding (tested: 2 µg/ml)
[4]
  EC50 (read off the curve): ~0.7 µg/mL
[5]
  binding result: no binding
[6]
  binding result: no binding
